T1: mouse AXL extracellular domain (Sino cat. 51026-M08H) (mouse, UniProt Q00993 19-445)
T1 construct: extracellular domain; Bought protein; also called mouse AXL ECD
T1 sequence (looked up): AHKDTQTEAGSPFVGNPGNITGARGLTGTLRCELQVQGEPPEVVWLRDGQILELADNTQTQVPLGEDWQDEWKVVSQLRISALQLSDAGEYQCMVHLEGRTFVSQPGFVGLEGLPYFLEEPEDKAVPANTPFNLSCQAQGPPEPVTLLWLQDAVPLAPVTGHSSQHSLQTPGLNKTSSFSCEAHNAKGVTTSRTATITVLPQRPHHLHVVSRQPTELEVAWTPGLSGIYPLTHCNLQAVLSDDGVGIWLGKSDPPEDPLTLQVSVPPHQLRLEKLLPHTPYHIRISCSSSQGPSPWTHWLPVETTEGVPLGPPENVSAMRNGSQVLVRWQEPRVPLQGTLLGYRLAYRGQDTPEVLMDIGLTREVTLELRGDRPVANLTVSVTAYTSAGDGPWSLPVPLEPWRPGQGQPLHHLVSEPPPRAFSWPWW

B1: NRC-sdAb001-Fc (VHH-human IgG1 Fc fusion) (Fc fusion)
chain: QVKLEESGGGLVQAGGSLRLSCTASASISSFDIMGWYRQAPGKQRELVAAITTLDIANYRDSVKGRFTISRDNAKNTVYLQMDSLKPEDTARYHCAAFQSDQNYWGQGTQVTVSS
notes: VHH fused N-terminally to human IgG1 Fc, made in HEK293 cells; also called NRC-sdAb0001-Fc; NRC-sdAb001-hIgG1; not shown: human IgG1 Fc
B2: hFC-F107-10G1 (antibody, human IgG1, kappa, V domains shown)
VH: EVNLVESGGGVVKPGASLKLSCEASGFTFSNYGMSWVRQTSDKRLEWVASISGGGGRTYYLDNVKGRFIISRENAKNTLYLQMSSLKSEDTALFYCARGARASYFAMDYWGQGSSVTVSS
VL: VIVMTQSHKFMSTSVGDRVSITCKASQDVTTAVAWYQQKPGQSPKLLIYWASTRHTGVPDRFTGSGSGTDYSLTISNVQTEDLAFYYCQQHFTTPLTFGAGTKLELKR
notes: Chimeric mAb, human IgG1 / human kappa constant regions; also called mAb F107-10G1

Experiments:
[1] = target: T1, mouse AXL extracellular domain (Sino …); test: ELISA on coated mouse AXL ECD (100 ng/well), VHH-Fc
Experimental: (§1) ELISA. ELISAs against human, cyno and mouse AXL ECDs were conducted by immobilizing 100 ng of each protein in wells of Nunc MaxiSorp microplates overnight. Human AXL (aa 1-451) and cyno AXL (aa 1-449) were produced recombinantly as described in Example 10. Mouse AXL was purchased from Sino (cat. 51026-M08H). The next day, plates were blocked with 5% (w/v) dried milk in PBS. Murine mAbs (either hybridoma- or recombinantly-produced) or VHH-Fcs were diluted in PBS containing 1% BSA and 0.1% Tween-20 and added to wells for 2 hours at room temperature. Wells were washed 5× with PBS containing 0.1% Tween-20, then HRP-labeled protein A (diluted 1:1000 in PBS containing 1% BSA and 0.1% Tween™-20) was added to wells for 1 hour at room temperature. Wells were washed again 5× with PBS/0.1% Tween-20 and developed using TMB substrate. Absorbance was measured at 450 nm. As a positive control for mouse AXL binding, a commercial anti-mouse AXL mAb (clone 175128, R&D Systems MAB8541, rat IgG2A) was used and detected with donkey […] secondary antibody.

[2] = target: T1, mouse AXL extracellular domain (Sino …); test: ELISA on coated mouse AXL ECD (100 ng/well)
Experimental: as §1

Binder | binding result [1] | binding result [2]
B1 | no binding | –
B2 | – | no binding
